In the nanobody polyreactivity screen of Harvey et al. (2022):

Assay: yeast display, Sf9 membrane polyspecificity reagent, FACS + sequencing; frameworks hold sequencing errors
Procedure, shortened: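 Galactose induction of a Saccharomyces cerevisiae BJ5465 synthetic nanobody display library ran 36–48 hours. The cells were then stained for 1 hour at 4 °C with 10% biotinylated, detergent-solubilized Sf9 membrane reagent, pulled down on streptavidin microbeads and FACS-sorted into low and high (top ~1%) gates on expression and reagent-binding fluorescence. Labels for polyreactivity follow the gate of origin.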

Row | Sequence | polyreactivity (PSR sort gate)
1 | QVQLVESGGGLVQAGGSLRLSCAASVRIFRFYVMGWYRQAPGKERELVAAISKRGASTSYADSVKGRFTISRDNAKNTVYLQMNSLKPEDTAVYYCAASAKRGEMGYWGQGTQVTVSS | high polyreactivity
2 | QVQLVESGGGLVQAGGRLRLSCAASGRIFSYNAMGWYRQAPGKERELVAGITSGGRTYYADSVKGRFTISRDNAKNTVYLQMNSLKPEDTAVYYCAARYVPARTRYYYWGQGTQVTVSS | high polyreactivity
3 | QVQLVESGGGLVQAGGSLRLSCAASGSIFYQYAMGWYRQAPGKERELVAGITWSGGSTYYADSVKGRFTISRDNAKYTVYLQMNSLKPEDTAVFYCAAQYFWYVYSYDYWGQGTQVTVSS | high polyreactivity
4 | QVQLQESGGGLLQADGSLRLSCAASGTIFTQSYMGWYRQAPGKEREFVAGISNGTNTNYGDSVKGRFTISRDNAKNTVYLQMNSLKLEDTAVYYCAVKGFYVDVLAYWGQGTHVTVSS | high polyreactivity
5 | QVQLVESGGGLVQAGGSLRLSCAASGTFYGNTMGWYRRPPGKERELVAVISIDGSTNYADSVKGRFTISRDNAKNTVYLQMNSLKPEDTAVYYCAADYWRQFRDYDYWGQGTQVTVSS | low polyreactivity
6 | QVQLVESGGGLVQAGGSLRLSSAASGGIFRIYGMGSYRQAPGKERELVADISIGGRTTYADSVKGRFTISRDNAKNTVYLQMHSLKPEDTAVYYCKTPYWYRIGQRLAWYDYWGQGTQVTVSS | low polyreactivity
7 | QVQLVESGGGLVQAGGSLRLSCAASGSIFDTYAMGWYRQATGKERELVSTISWSGDSKYYADSVKGRFTISRDNAKNTVYLQINSLKPEDTAVYYCAADVGQVWDHEDYDYWGQGTQVTVSS | low polyreactivity
8 | QVQLVESGGGLVQAGGSLRLSCAPSGSIFDVNAMGWYRQSPGKESELVAAISDSGGSTYYADSVKGRFTISRDNAKNTVYLQMNSLKPEDTAVYYCNADWSWYNYYEFDYWGQGTQVTVSS | low polyreactivity
9 | QVQLVESGGGLVQAGGSLLISCAASGITFDGYAMGWYRHAPGKESELVARITATGFRTYYADSVKGRFTISRDYAKNTVYLKMNSLKPEDTAVYYCPRTTSCVQNVRKYYYWGQGTQVTVSS | high polyreactivity
10 | QVQLVESGGGLVQAGGSLRLSCAASGRIFGYYAMGWYRQAPGKERELVAAITSGGRTNYADSVKGRFTISRDNAKNTVYLQMNSLKPEDTAVYYCAKEYPRYSSPYDYWGQGTQVTVSS | low polyreactivity
11 | QVQLVESGGGLVQAGGSLRLSCAASGITFVYYAMGWYRQAPGKERELVAAISVSGGSTYYADSVKGRFTISRDNAKNTVYLQMNSLKPEDTAVYYCAADGYSGIGVREGYWGQGTQVTVSS | high polyreactivity
12 | QVQLVESGGGLVQAGGSLRLSCAASGRIFFWYAMGWYRQAPGKERELVASINWSGVSTYYADSVKGRFTISRDNAKNTVYLQMNSLKPEDTAVYYCNRVRGLYWQRHGYWGQGTQVTVSS | high polyreactivity
13 | QVQLVESGGGLVQAGGSLRLSCAASGFSFDFYTMGWYRQAPGKERELVAAITWSGDSTYYADSVKGRFTISRDNAKNTVDLQMNSLKPEDTAVYYCAVARVSQDGYRRRVTTWHDDYWGQGTQVTVSS | low polyreactivity
14 | QVQLVESGGGLVQAGGSLRVSCAASGLTFSVYTRGWYRQAPGKERELVAAITTSGGRTYYADSVKGRFTISRDNAKNTVYLQMNSLKPEDTAVYYCAAVRTGDTTGTMGYWGQGTQVTVSS | high polyreactivity
15 | QVQLVESGGGLVQAGCSLRLSCAASGSIFYSNAMGWYRQAPGKERELVAAITRRGGSTYYADSVKGRFTISRDNAKNTVYLQMNSLKPEDTAVYYCYADGSARTPYYYRWYRYGYWGQGTQVSVSS | high polyreactivity
16 | QVQLVESGGGLVQAGGSLRLSCAASGFTFTIYAMGWYRQAPGKERELVATISGRAGRTYYADSVKGRFTISRDNAKNTVYLQMNSLKPEDTAVYYCNAGQWRYPGLYYYWGQGTQVTVSS | high polyreactivity
17 | QVQLVESGGGLVQAGGSLRLSCDASGRIFASNAMGWYRQAPGKERELVATIRRSGGSTYYADSVKGRFTISRDNAKNTVYLQMNSLKPEDTAVYYCNARMYGGYGWIYDYWRQGTQVTVSS | high polyreactivity
18 | QVQLVESGGGLVQAGGSLRLSCAASGFTFWYYAMGWYRQAPGKERELVATITSGGRTSYADSVKGRFTISRDNAKNTVYLQMNSLKPEDTAVYYCAAVARYTPGYGYWGQGTQVTVSS | high polyreactivity
19 | QVQLVDSAGGLVQAGGILRLSCAASGFTFDAKSRGWYRQAPGTERELVDAISLSDGSTYYADSVKGRFTISRDNAKNTVYLQMNSLKPEDTAVYYCNAERFGSGLAWLLFDYWGQGTQVTVSS | low polyreactivity
20 | QVQLVESGGGLVQAGGSLRLSCAASGFTLGTYAMGWYRQAPGKERELVASITVTGGSTYYADSVKGRFTISRDNAKNTVYLQMNSLKPEDTAVYYCAASYQHFRSVNPYDSWGQGTQVTVSS | low polyreactivity
21 | QVQIVESGGGLVQAGGSLRLSSAASGNIFVYYAMGGYRQAPGKERELVAALTSDVSTYYADSVKGRFTISRDNAKNTVYLQMNSLKPEDTAVYYCNKVTPGRYYYSVTTGDYWGQGTKVTVSS | low polyreactivity
22 | QVQRVESGGGLVQAGGSLRLSCADSGGTFGSYAKGCSSQAPGQDRELVDAIDYSGADTYYADSVKGRFTISRDNAKNTVYLQMNSLKREDTAVFSCNADPLPYDGFYDYDYWGQGTQVTVSS | low polyreactivity
